Results published in paper PMC9687537.

B1: GFP–WDR34-WT [human] / WDR60 [human (endogenous in RPE1)] (parent)
chain 1: MATRAQPGPLSQAGSAGVAALATVGVASGPGPGRPGPLQDETLGVASVPSQWRAVQGIRWETKSCQTASIATASASAQARNHVDAQVQTEAPVPVSVQPPSQYDIPRLAAFLRRVEAMVIRELNKNWQSHAFDGFEVNWTEQQQMVSCLYTLGYPPAQAQGLHVTSISWNSTGSVVACAYGRLDHGDWSTLKSFVCAWNLDRRDLRPQQPSAVVEVPSAVLCLAFHPTQPSHVAGGLYSGEVLVWDLSRLEDPLLWRTGLTDDTHTDPVSQVVWLPEPGHSHRFQVLSVATDGKVLLWQGIGVGQLQLTEGFALVMQQLPRSTKLKKHPRGETEVGATAVAFSSFDPRLFILGTEGGFPLKCSLAAGEAALTRMPSSVPLRAPAQFTFSPHGGPIYSVSCSPFHRNLFLSAGTDGHVHLYSMLQAPPLTSLQLSLKYLFAVRWSPVRPLVFAAASGKGDVQLFDLQKSSQKPTVLIKQTQDESPVYCLEFNSQQTQLLAAGDAQGTVKVWQLSTEFTEQGPREAEDLDCLAAEVAA
chain 2: MEPGKRRTKDDTWKADDLRKHLWAIQSGGSKEERKHREKKLRKESEMDLPEHKEPRCRDPDQDARSRDRVAEVHTAKESPRGERDRDRQRERRRDAKDREKEKLKEKHREAEKSHSRGKDREKEKDRRARKEELRQTVAHHNLLGQETRDRQLLERAERKGRSVSKVRSEEKDEDSERGDEDRERRYRERKLQYGDSKDNPLKYWLYKEEGERRHRKPREPDRDNKHREKSSTREKREKYSKEKSNSFSDKGEERHKEKRHKEGFHFDDERHQSNVDRKEKSAKDEPRKRESQNGEHRNRGASSKRDGTSSQHAENLVRNHGKDKDSRRKHGHEEGSSVWWKLDQRPGGEETVEIEKEETDLENARADAYTASCEDDFEDYEDDFEVCDGDDDESSNEPESREKLEELPLAQKKEIQEIQRAINAENERIGELSLKLFQKRGRTEFEKEPRTDTNSSPSRASVCGIFVDFASASHRQKSRTQALKQKMRSTKLLRLIDLDFSFTFSLLDLPPVNEYDMYIRNFGKKNTKQAYVQCNEDNVERDIQTEEIETREVWTQHPGESTVVSGGSEQRDTSDAVVMPKIDTPRLCSFLRAACQVMAVLLEEDRLAAEPSWNLRAQDRALYFSDSSSQLNTSLPFLQNRKVSSLHTSRVQRQMVVSVHDLPEKSFVPLLDSKYVLCVWDIWQPSGPQKVLICESQVTCCCLSPLKAFLLFAGTAHGSVVVWDLREDSRLHYSVTLSDGFWTFRTATFSTDGILTSVNHRSPLQAVEPISTSVHKKQSFVLSPFSTQEEMSGLSFHIASLDESGVLNVWVVVELPKADIAGSISDLGLMPGGRVKLVHSALIQLGDSLSHKGNEFWGTTQTLNVKFLPSDPNHFIIGTDMGLISHGTRQDLRVAPKLFKPQQHGIRPVKVNVIDFSPFGEPIFLAGCSDGSIRLHQLSSAFPLLQWDSSTDSHAVTGLQWSPTRPAVFLVQDDTSNIYIWDLLQSDLGPVAKQQVSPNRLVAMAAVGEPEKAGGSFLALVLARASGSIDIQHLKRRWAAPEVDECNRLRLLLQEALWPEGKLHK
B2: GFP–WDR34-WT [human] / DYNLL2 [human (endogenous in RPE1)] (parent)
chain 1: B1 chain 1
chain 2: not shown
B3: GFP–WDR34-WT [human] / LIC3 [human (endogenous in RPE1)] (parent)
chain 1: B1 chain 1
chain 2: MPSETLWEIAKAEVEKRGINGSEGDGAEIAEKFVFFIGSKNGGKTTIILRCLDRDEPPKPTLALEYTYGRRAKGHNTPKDIAHFWELGGGTSLLDLISIPITGDTLRTFSLVLVLDLSKPNDLWPTMENLLQATKSHVDKVIMKLGKTNAKAVSEMRQKIWNNMPKDHPDHELIDPFPVPLVIIGSKYDVFQDFESEKRKVICKTLRFVAHYYGASLMFTSKSEALLLKIRGVINQLAFGIDKSKSICVDQNKPLFITAGLDSFGQIGSPPVPENDIGKLHAHSPMELWKKVYEKLFPPKSINTLKDIKDPARDPQYAENEVDEMRIQKDLELEQYKRSSSKSWKQIELDS

Variants of: B1
Test: GFP-trap purification, TMT-labelling and mass spectrometry
Conditions: with WDR60 [human (endogenous in RPE1)]; RPE1 WDR34 KO cell lines expressing GFP proteins, serum-starved for 24 h; read off a plot

| ratio to parent | Variant |
| --- | --- |
| 1.7 | chain 1 MATRAQPGPLSQAGSAGVAALATVGVASGPGPGRPGPLQDETLGVASVPSQWRAVQGIRWETKSCQTASIATASASAQARNHVDAQVQTEAPVPVSVQPPSQYDIPRLAAFLRRVEAMVIRELNKNWQSHAFDGFEVNWTEQQQMVSCLYTLGYPPAQAQGLHVTSISWNSTGSVVACAYGWLDHGDWSTLKSFVCAWNLDRRDLRPQQPSAVVEVPSAVLCLAFHPTQPSHVAGGLYSGEVLVWDLSRLEDPLLWRTGLTDDTHTDPVSQVVWLPEPGHSHRFQVLSVATDGKVLLWQGIGVGQLQLTEGFALVMQQLPRSTKLKKHPRGETEVGATAVAFSSFDPRLFILGTEGGFPLKCSLAAGEAALTRMPSSVPLRAPAQFTFSPHGGPIYSVSCSPFHRNLFLSAGTDGHVHLYSMLQAPPLTSLQLSLKYLFAVRWSPVRPLVFAAASGKGDVQLFDLQKSSQKPTVLIKQTQDESPVYCLEFNSQQTQLLAAGDAQGTVKVWQLSTEFTEQGPREAEDLDCLAAEVAA [chain 1 R182W] |
| 1.5 | chain 1 MATRAQPGPLSQAGSAGVAALATVGVASGPGPGRPGPLQDETLGVASVPSQWRAVQGIRWETKSCQTASIATASASAQARNHVDAQVQTEAPVPVSVQPPSQYDIPRLAAFLRRVEAMVIRELNKNWQSHAFDGFEVNWTEQQQMVSCLYTLGYPPAQAQGLHVTSISWNSTGSVVACAYGRLDHGDWSTLKSFVCAWNLDRRDLCPQQPSAVVEVPSAVLCLAFHPTQPSHVAGGLYSGEVLVWDLSRLEDPLLWRTGLTDDTHTDPVSQVVWLPEPGHSHRFQVLSVATDGKVLLWQGIGVGQLQLTEGFALVMQQLPRSTKLKKHPRGETEVGATAVAFSSFDPRLFILGTEGGFPLKCSLAAGEAALTRMPSSVPLRAPAQFTFSPHGGPIYSVSCSPFHRNLFLSAGTDGHVHLYSMLQAPPLTSLQLSLKYLFAVRWSPVRPLVFAAASGKGDVQLFDLQKSSQKPTVLIKQTQDESPVYCLEFNSQQTQLLAAGDAQGTVKVWQLSTEFTEQGPREAEDLDCLAAEVAA [chain 1 R206C] |
| 1.3 | chain 1 MATRAQPGPLSQAGSAGVAALATVGVASGPGPGRPGPLQDETLGVASVPSQWRAVQGIRWETKSCQTASIATASASAQARNHVDAQVQTEAPVPVSVQPPSQYDIPRLAAFLRRVEAMVIRELNKNWQSHAFDGFEVNWTEQQQMVSCLYTLGYPPAQAQGLHVTSISWNSTGSVVACAYGRLDHGDWSTLKSFVCAWNLDRRDLRPQQPSAVVEVPSAVLCLAFHPTQPSHVAGGLYSGEVLVWDLSRLEDPLLWRTGLTDDTHTDPVSQVVWLPEPGHSHRFQVLSVATDGKVLLWQGIGVGQLQLTEGFALVMQQLPRSTKLKKHPRGETEVGATAVVFSSFDPRLFILGTEGGFPLKCSLAAGEAALTRMPSSVPLRAPAQFTFSPHGGPIYSVSCSPFHRNLFLSAGTDGHVHLYSMLQAPPLTSLQLSLKYLFAVRWSPVRPLVFAAASGKGDVQLFDLQKSSQKPTVLIKQTQDESPVYCLEFNSQQTQLLAAGDAQGTVKVWQLSTEFTEQGPREAEDLDCLAAEVAA [chain 1 A341V] |
| 1.4 | chain 1 MATRAQPGPLSQAGSAGVAALATVGVASGPGPGRPGPLQDETLGVASVPSQWRAVQGIRWETKSCQTASIATASASAQARNHVDAQVQTEAPVPVSVQPPSQYDIPRLAAFLRRVEAMVIRELNKNWQSHAFDGFEVNWTEQQQMVSCLYTLGYPPAQAQGLHVTSISWNSTGSVVACAYGRLDHGDWSTLKSFVCAWNLDRRDLRPQQPSAVVEVPSAVLCLAFHPTQPSHVAGGLYSGEVLVWDLSRLEDPLLWRTGLTDDTHTDPVSQVVWLPEPGHSHRFQVLSVATDGKVLLWQGIGVGQLQLTEGFALVMQQLPRSTKLKKHPRGETEVGATAVAFSSFDPRLFILGTEGGFPLKCSLAAGEAALTRMPSSVPLRAPAQFTFSPHGGPIYSVSCSPFHRNLFLSAGTDGHVHLYSMLQAPPLTSLQLSLRYLFAVRWSPVRPLVFAAASGKGDVQLFDLQKSSQKPTVLIKQTQDESPVYCLEFNSQQTQLLAAGDAQGTVKVWQLSTEFTEQGPREAEDLDCLAAEVAA [chain 1 K436R] |

Variants of: B2
Test: as above
Conditions: with DYNLL2 [human (endogenous in RPE1)]; RPE1 WDR34 KO cell lines expressing GFP proteins, serum-starved for 24 h; read off a plot

| ratio to parent | Variant |
| --- | --- |
| 1.5 | chain 1 T354M |

Variants of: B3
Test: as above
Conditions: with LIC3 [human (endogenous in RPE1)]; RPE1 WDR34 KO cell lines expressing GFP proteins, serum-starved for 24 h; read off a plot

| ratio to parent | Variant |
| --- | --- |
| 2.2 | chain 1 MATRAQPGPLSQAGSAGVAALATVGVASGPGPGRPGPLQDETLGVASVPSQWRAVQGIRWETKSCQTASIATASASAQARNHVDAQVQTEAPVPVSVQPPSQYDIPRLAAFLRRVEAMVIRELNKNWQSHAFDGFEVNWTEQQQMVSCLYTLGYPPAQAQGLHVTSISWNSTGSVVACAYGRLDHGDWSTLKSFVCAWNLDRRDLRPQQPSAVVEVPSAVLCLAFHPTQPSHVAGGLYSGEVLVWDLSRLEDPLLWRTGLTDDTHTDPVSQVVWLPEPGHSHRFQVLSVATDGKVLLWQGIGVGQLQLTEGFALVMQQLPRSTKLKKHPRGETEVGATAVVFSSFDPRLFILGTEGGFPLKCSLAAGEAALTRMPSSVPLRAPAQFTFSPHGGPIYSVSCSPFHRNLFLSAGTDGHVHLYSMLQAPPLTSLQLSLKYLFAVRWSPVRPLVFAAASGKGDVQLFDLQKSSQKPTVLIKQTQDESPVYCLEFNSQQTQLLAAGDAQGTVKVWQLSTEFTEQGPREAEDLDCLAAEVAA [chain 1 A341V] |
